# Tests used:
# malate dehydrogenase = malate dehydrogenase (UniProt P00346)
# [1] = biological target: Trypanosoma brucei Hsp70.c (Trypanosoma brucei brucei TREU927)
# [2] = biological target: Trypanosoma cruzi Hsp70B (Trypanosoma cruzi)
# UniProt P00346, sequence (P00346 25-338): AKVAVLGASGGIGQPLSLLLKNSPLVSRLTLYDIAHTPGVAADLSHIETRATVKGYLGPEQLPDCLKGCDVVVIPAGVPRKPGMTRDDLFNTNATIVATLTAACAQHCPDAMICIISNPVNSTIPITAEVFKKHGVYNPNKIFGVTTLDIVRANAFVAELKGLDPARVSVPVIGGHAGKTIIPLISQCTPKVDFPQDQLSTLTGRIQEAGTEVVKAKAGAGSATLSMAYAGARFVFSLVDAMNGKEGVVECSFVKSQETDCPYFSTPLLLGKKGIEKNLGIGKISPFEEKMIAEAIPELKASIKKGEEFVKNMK
Substance,"suppression of thermal aggregation of MDH (0.72 µM, 48°C, light scatter at 360 nm, 30 min) by TbHsp70.c, dose-dependent; number printed for 0.5 µM TbHsp70.c (malate dehydrogenase)","stimulation of the basal ATPase activity of TbHsp70.c by Tbj2 (colorimetric phosphate release, 37°C, 600 µM ATP); equal concentrations 1.62-fold, Tbj2 at 2-fold molar excess 2.88-fold [1]","stimulation of the basal ATPase activity of TcHsp70B by Tbj2 (colorimetric phosphate release, 37°C, 600 µM ATP); equal concentrations 1.39-fold, Tbj2 at 2-fold molar excess 2.62-fold [2]"
Trypanosoma brucei Hsp70.c (natural protein),61.8%,,
Trypanosoma brucei J protein 2 (natural protein),,2.88 fold,2.62 fold

# Source: paper PMC3953656
